Target: beta Klotho and FGFR1c (Fibroblast Growth Factor Receptor isoform 1c) expressed on the cell surface of a …
Experiment: cell-based or functional assay

EC50 (ng/mL), STEADY-GLO Elk1 luciferase reporter assay: 38 ng/mL
Fold loss potency relative to WT bFGF21, Elk1 luciferase reporter assay: 1 fold
B1: wild-type (WT) bFGF-21 (ligand)
chain: HPIPDSSPLLQFGGQVRQRYLYTDDAQETEAHLEIRADGTVVGAARQSPESLLELKALKPGVIQILGVKTSRFLCQGPDGKLYGSLHFDPKACSFRELLLEDGYNVYQSETLGLPLRLPPQRSSNRDPAPRGPARFLPLPGLPAAPPDPPGILAPEPPDVGSSDPLSMVGPSYGRSPSYTS

— patent publication US20190201491A1 (ELANCO US, published 2019)
